Changes are numbered by the printed parent chain.
Legend:
Assay in all cases: pull-down
[1] = biological target: GST-tagged FL-importin α7 (human, UniProt O60684 1-536)
[2] = biological target: T1, GST-tagged FL-importin α3 (RRRR) (human, UniProt O00629 1-521, Q28R)
T1 sequence: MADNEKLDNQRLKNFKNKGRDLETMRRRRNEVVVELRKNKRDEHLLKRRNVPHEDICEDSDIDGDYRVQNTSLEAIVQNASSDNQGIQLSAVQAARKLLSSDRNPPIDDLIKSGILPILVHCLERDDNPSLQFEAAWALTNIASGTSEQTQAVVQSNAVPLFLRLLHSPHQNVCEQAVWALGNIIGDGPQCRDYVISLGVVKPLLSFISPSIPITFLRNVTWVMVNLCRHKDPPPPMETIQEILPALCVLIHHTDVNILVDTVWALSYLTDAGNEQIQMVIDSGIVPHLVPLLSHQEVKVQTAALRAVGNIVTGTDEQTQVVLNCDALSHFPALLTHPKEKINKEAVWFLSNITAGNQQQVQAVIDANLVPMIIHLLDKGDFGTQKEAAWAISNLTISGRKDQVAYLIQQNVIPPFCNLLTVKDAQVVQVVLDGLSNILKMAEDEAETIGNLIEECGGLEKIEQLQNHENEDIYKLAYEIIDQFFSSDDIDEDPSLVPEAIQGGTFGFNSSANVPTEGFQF

[3] = biological target: GST-tagged FL-importin α1 (mouse, UniProt P52293 1-529)
[4] = biological target: T2, GST-tagged FL-importin α3 (human, UniProt O00629 1-521)
T2 sequence: T1 sequence with R28Q

Binder: KRPAATKKAGQAKKKK [MBP-tagged nucleoplasmin NLS (NP-NLS, res. 155-170)]
- percent of importin α bound to cargo [1]: 46%
- percent of importin α bound to cargo [2]: 27%
- percent of importin α bound to cargo [3]: 25%
- percent of importin α bound to cargo [4]: 35%

Reference: publication PMC4346194 (Structure (London, England : 1993), 2015)
